Data as given in the supplement of paper PMC11316812.
± gives the standard deviation of the averaged measurements.

Experiments:
MCF7 = assay: percentage of EdU-negative (G0-arrested) nuclei per well, 72 h; higher = more G0 arrest; conditions: reference: sequence is the full UniProt precursor, the tested protein was the secreted form or ectodomain
hTERT-HMEC = assay: as above; conditions: reference: sequence is the full UniProt precursor, the tested protein was the secreted form or ectodomain
[1] = protein concentration 0.0225 µM
[2] = protein concentration 0.03125 µM
[3] = protein concentration 0.3125 µM
[4] = protein concentration 0.02535 µM
[5] = protein concentration 0.2535 µM
[6] = protein concentration 0.0260325 µM
[7] = protein concentration 0.260325 µM
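Note: secreted proteins added to cultured cells, EdU pulse at the end, nuclei found by Hoechst imaging, EdU status from nuclear versus surrounding ring intensity ratio, PBS as neutral control.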

Row | Sequence | percentage of EdU-negative (MCF7; [1]) [%] | percentage of EdU-negative (MCF7; protein concentration 0.225 µM) [%] | percentage of EdU-negative (hTERT-HMEC; [1]) [%] | percentage of EdU-negative (hTERT-HMEC; protein concentration 0.225 µM) [%] | further results
1 | MGFNLTFHLSYKFRLLLLLTLCLTVVGWATSNYFVGAIQEIPKAKEFMANFHKTLILGKGKTLTNEASTKKVELDNCPSVSPYLRGQSKLIFKPDLTLEEVQAENPKVSRGRYRPQECKALQRVAILVPHRNREKHLMYLLEHLHPFLQRQQLDYGIYVIHQAEGKKFNRAKLLNVGYLEALKEENWDCFIFHDVDLVPENDFNLYKCEEHPKHLVVGRNSTGYRLRYSGYFGGVTALSREQFFKVNGFSNNYWGWGGEDDDLRLRVELQRMKISRPLPEVGKYTMVFHTRDKGNEVNAERMKLLHQVSRVWRTDGLSSCSYKLVSVEHNPLYINITVDFWFGA | 25.1 ± 1.2 | 27.9 ± 0.9 | 5.14 ± 0.69 | 6.72 ± 0.53 | –
2 | MGFQKFSPFLALSILVLLQAGSLHAAPFRSALESSPADPATLSEDEARLLLAALVQDYVQMKASELEQEQEREGSSLDSPRSKRCGNLSTCMLGTYTQDFNKFHTFPQTAIGVGAPGKKRDMSSDLERDHRPHVSMPQNAN | – | – | – | – | percentage of EdU-negative (MCF7; [2]): 26.7 ± 2.5%; percentage of EdU-negative (MCF7; [3]): 25.55 ± 0.19%; percentage of EdU-negative (hTERT-HMEC; [2]): 5.19 ± 0.42%; percentage of EdU-negative (hTERT-HMEC; [3]): 5.1 ± 0.19%
3 | MGFWILAILTILMYSTAAKFSKQSWGLENEALIVRCPRQGKPSYTVDWYYSQTNKSIPTQERNRVFASGQLLKFLPAAVADSGIYTCIVRSPTFNRTGYANVTIYKKQSDCNVPDYLMYSTVSGSEKNSKIYCPTIDLYNWTAPLEWFKNCQALQGSRYRAHKSFLVIDNVMTEDAGDYTCKFIHNENGANYSVTATRSFTVKDEQGFSLFPVIGAPAQNEIKEVEIGKNANLTCSACFGKGTQFLAAVLWQLNGTKITDFGEPRIQQEEGQNQSFSNGLACLDMVLRIADVKEEDLLLQYDCLALNLHGLRRHTVRLSRKNPIDHHSIYCIIAVCSVFLMLINVLVIILKMFWIEATLLWRDIAKPYKTRNDGKLYDAYVVYPRNYKSSTDGASRVEHFVHQILPDVLENKCGYTLCIYGRDMLPGEDVVTAVETNIRKSRRHIFILTPQITHNKEFAYEQEVALHCALIQNDAKVILIEMEALSELDMLQAEALQDSLQHLMKVQGTIKWREDHIANKRSLNSKFWKHVRYQMPVPSKIPRKASSLTPLAAQKQ | – | – | – | – | percentage of EdU-negative (MCF7; [4]): 23.7 ± 0.79%; percentage of EdU-negative (MCF7; [5]): 25.9 ± 0.45%; percentage of EdU-negative (hTERT-HMEC; [4]): 5.463 ± 0.046%; percentage of EdU-negative (hTERT-HMEC; [5]): 5.2 ± 0.66%
4 | MGGPRALLAALWALEAAGTAALRIGAFNIQSFGDSKVSDPACGSIIAKILAGYDLALVQEVRDPDLSAVSALMEQINSVSEHEYSFVSSQPLGRDQYKEMYLFVYRKDAVSVVDTYLYPDPEDVFSREPFVVKFSAPGTGERAPPLPSRRALTPPPLPAAAQNLVLIPLHAAPHQAVAEIDALYDVYLDVIDKWGTDDMLFLGDFNADCSYVRAQDWAAIRLRSSEVFKWLIPDSADTTVGNSDCAYDRIVACGARLRRSLKPQSATVHDFQEEFGLDQTQALAISDHFPVEVTLKFHR | – | – | – | – | percentage of EdU-negative (MCF7; [6]): 25.9 ± 0.85%; percentage of EdU-negative (MCF7; [7]): 23.9 ± 1.7%; percentage of EdU-negative (hTERT-HMEC; [6]): 4.97 ± 0.32%; percentage of EdU-negative (hTERT-HMEC; [7]): 5.04 ± 0.098%
5 | MGGRVFLAFCVWLTLPGAETQDSRGCARWCPQNSSCVNATACRCNPGFSSFSEIITTPTETCDDINECATPSKVSCGKFSDCWNTEGSYDCVCSPGYEPVSGAKTFKNESENTCQDVDECQQNPRLCKSYGTCVNTLGSYTCQCLPGFKFIPEDPKVCTDVNECTSGQNPCHSSTHCLNNVGSYQCRCRPGWQPIPGSPNGPNNTVCEDVDECSSGQHQCDSSTVCFNTVGSYSCRCRPGWKPRHGIPNNQKDTVCEDMTFSTWTPPPGVHSQTLSRFFDKVQDLGRDSKTSSAEVTIQNVIKLVDELMEAPGDVEALAPPVRHLIATQLLSNLEDIMRILAKSLPKGPFTYISPSNTELTLMIQERGDKNVTMGQSSARMKLNWAVAAGAEDPGPAVAGILSIQNMTTLLANASLNLHSKKQAELEEIYESSIRGVQLRRLSAVNSIFLSHNNTKELNSPILFAFSHLESSDGEAGRDPPAKDVMPGPRQELLCAFWKSDSDRGGHWATEGCQVLGSKNGSTTCQCSHLSSFAILMAHYDVEDWKLTLITRVGLALSLFCLLLCILTFLLVRPIQGSRTTIHLHLCICLFVGSTIFLAGIENEGGQVGLRCRLVAGLLHYCFLAAFCWMSLEGLELYFLVVRVFQGQGLSTRWLCLIGYGVPLLIVGVSAAIYSKGYGRPRYCWLDFEQGFLWSFLGPVTFIILCNAVIFVTTVWKLTQKFSEINPDMKKLKKARALTITAIAQLFLLGCTWVFGLFIFDDRSLVLTYVFTILNCLQGAFLYLLHCLLNKKVREEYRKWACLVAGGSKYSEFTSTTSGTGHNQTRALRASESGI | 24.7 ± 1.8 | 26.3 ± 3.2 | 5.19 ± 0.7 | 5.66 ± 0.12 | –
6 | MGHLSAPLHRVRVPWQGLLLTASLLTFWNPPTTAQLTTESMPFNVAEGKEVLLLVHNLPQQLFGYSWYKGERVDGNRQIVGYAIGTQQATPGPANSGRETIYPNASLLIQNVTQNDTGFYTLQVIKSDLVNEEATGQFHVYPELPKPSISSNNSNPVEDKDAVAFTCEPETQDTTYLWWINNQSLPVSPRLQLSNGNRTLTLLSVTRNDTGPYECEIQNPVSANRSDPVTLNVTYGPDTPTISPSDTYYRPGANLSLSCYAASNPPAQYSWLINGTFQQSTQELFIPNITVNNSGSYTCHANNSVTGCNRTTVKTIIVTELSPVVAKPQIKASKTTVTGDKDSVNLTCSTNDTGISIRWFFKNQSLPSSERMKLSQGNTTLSINPVKREDAGTYWCEVFNPISKNQSDPIMLNVNYNALPQENGLSPGAIAGIVIGVVALVALIAVALACFLHFGKTGRASDQRDLTEHKPSVSNHTQDHSNDPPNKMNEVTYSTLNFEAQQPTQPTSASPSLTATEIIYSEVKKQ | 24.7 ± 1.3 | 26.6 ± 0.95 | 5.04 ± 1.4 | 7.07 ± 0.44 | –
